These results are taken from US20020160496A1 (DUKE UNIVERSITY, published 2002).

The data set concerns the molecule itself. Kind of data set: blue native PAGE (BN-PAGE) of native, heat shocked and bis-ANS treated GRP94; self-association.

B1: GRP94 (glucose regulated protein of 94 kDa) purified from porcine pancreas (other, UniProt Q29092 22-804, looked up)
chain: EDEVDVDGTVEEDLGKSREGSRTDDEVVQREEEAIQLDGLNASQIRELREKSEKFAFQAEVNRMMKLIINSLYKNKEIFLRELISNASDALDKIRLISLTDENALAGNEELTVKIKCDKEKNLLHVTDTGVGMTREELVKNLGTIAKSGTSEFLNKMAEAQEDGQSTSELIGQFGVGFYSAFLVADKVIVTSKHNNDTQHIWESDSNEFSVIADPRGNTLGRGTTITLVLKEEASDYLELDTIKNLVKKYSQFINFPIYVWSSKTETVEEPMEEEEAAKEEKEESDDEAAVEEEEEEKKPKTKKVEKTVWDWELMNDIKPIWQRPSKEVEDDEYKAFYKSFSKESDDPMAYIHFTAEGEVTFKSILFVPTSAPRGLFDEYGSKKSDYIKLYVRRVFITDDFHDMMPKYLNFVKGVVDSDDLPLNVSRETLQQHKLLKVIRKKLVRKTLDMIKKIADEKYNDTFWKEFGTNIKLGVIEDHSNRTRLAKLLRFQSSHHPSDITSLDQYVERMKEKQDKIYFMAGSSRKEAESSPFVERLLKKGYEVIYLTEPVDEYCIQALPEFDGKRFQNVAKEGVKFDESEKSKENREAVEKEFEPLLNWMKDKALKDKIEKAVVSQRLTESPCALVASQYGWSGNMERIMKAQAYQTGKDISTNYYASQKKTFEINPRHPLIRDMLRRVKEDEDDKTVSDLAVVLFETATLRSGYLLPDTKAYGDRIERMLRLSLNIDPDAKVEEEPEEEPEETTEDTTEDTEQDDDEEMDAGADEEEQETSETSTAEKDEL
notes: also called gp96; ERp99
As to B1, the binding result was “binds”.
